Assay results reported in US20250163127A1 (published 2025).

T1: human CD86 (human)
T1 chain: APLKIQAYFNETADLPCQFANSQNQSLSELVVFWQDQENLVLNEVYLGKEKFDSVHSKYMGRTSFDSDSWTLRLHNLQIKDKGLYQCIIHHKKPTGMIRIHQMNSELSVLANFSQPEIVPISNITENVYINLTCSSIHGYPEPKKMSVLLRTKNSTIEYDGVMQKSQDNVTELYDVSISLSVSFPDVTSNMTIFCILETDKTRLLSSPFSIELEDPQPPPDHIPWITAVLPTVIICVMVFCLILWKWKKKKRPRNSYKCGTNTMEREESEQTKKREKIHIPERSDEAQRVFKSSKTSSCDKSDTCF


Columns and labels:
human CD86 = target: T1, human CD86; experiment: cell-based or functional assay
PD-1 = PD-1 (human, UniProt Q15116); experiment: cell-based or functional assay
human PD-1 = human PD-1 (human, UniProt Q15116); experiment: flow cytometry, Jurkat/IL-2/PD-1 cells
CD2 = CD2 (Homo sapiens (Human), UniProt P06729); experiment: flow cytometry, CHO-CD2 cells

Row | Binder | 100 nM IFN-gamma (pg/mL), SEB assay (human CD86) [pg/mL] | 100 nM IFN-gamma (pg/mL), SEB assay (PD-1) [pg/mL] | EC50 (human PD-1) [nM] | EC50 (CD2) [nM]
1 | PD-L1 303-CTLA-4 3037-Fc (SEQ ID NO 3668) (Fc fusion) FTVTVPKDLYVVEYGSNMTIECKFPVEKQLDLAALIVYWEMEGKDIIQFVHGEEDQKAQHSSYRQRARLLKDQLSLGNAALQITDVKLQDAGVYRCMISYGGGADYKRITVKVNAGSGGSGGGGSGGGGSKAMHVAQPAVVLASSRGIASFVCEYASPWKATEVRVTVLRQADSQVTEVCAATYMMGSELTFPDDSICTGTSSGNQVNLTIRGLRAMDTGLYICKVEQMYPPPYLLGIGNGTQIYVIDPEPCPDSDGGGGSGSGGGGSEPKSSDKTHTCPPCPAPEAEGAPSVFLFPPKPKDTLMISRTPEVTCVVVDVSHEDPEVKFNWYVDGVEVHNAKTKPREEQYNSTYRVVSVLTVLHQDWLNGKEYKCKVSNKALPAPIEKTISKAKGQPREPQVYTLPPSRDELTKNQVSLTCLVKGFYPSDIAVEWESNGQPENNYKTTPPVLDSDGSFFLYSKLTVDKSRWQQGNVFSCSVMHEALHNHYTQKSLSLSPG | 6100 | 6100 | – | –
2 | PD-L1 303-CTLA4 3060-Fc (Fc fusion) FTVTVPKDLYVVEYGSNMTIECKFPVEKQLDLAALIVYWEMEGKDIIQFVHGEEDQKAQHSSYRQRARLLKDQLSLGNAALQITDVKLQDAGVYRCMISYGGGADYKRITVKVNAGSGGSGGGGSGGGGSKAMHVAQPAVVFASSHGIASFVCEYASPWKATEVRVTVLRQADSQVTEVCAATYMTGNELTFLDDSICTGTSSGNQVNLTIQGLRAMDTGLYICKVEQMYPPPYLLGIGNGTQIYVIDPEPCPDSDGGGGSGSGGGGSEPKSSDKTHTCPPCPAPEAEGAPSVFLFPPKPKDTLMISRTPEVTCVVVDVSHEDPEVKFNWYVDGVEVHNAKTKPREEQYNSTYRVVSVLTVLHQDWLNGKEYKCKVSNKALPAPIEKTISKAKGQPREPQVYTLPPSRDELTKNQVSLTCLVKGFYPSDIAVEWESNGQPENNYKTTPPVLDSDGSFFLYSKLTVDKSRWQQGNVFSCSVMHEALHNHYTQKSLSLSPG | 4470 | 4470 | – | –
3 | CTLA-4 3037-Fc (Fc fusion) KAMHVAQPAVVLASSRGIASFVCEYASPWKATEVRVTVLRQADSQVTEVCAATYMMGSELTFPDDSICTGTSSGNQVNLTIRGLRAMDTGLYICKVEQMYPPPYLLGIGNGTQIYVIDPEPCPDSDGSGGGGSEPKSSDKTHTCPPCPAPEAEGAPSVFLFPPKPKDTLMISRTPEVTCVVVDVSHEDPEVKFNWYVDGVEVHNAKTKPREEQYNSTYRVVSVLTVLHQDWLNGKEYKCKVSNKALPAPIEKTISKAKGQPREPQVYTLPPSRDELTKNQVSLTCLVKGFYPSDIAVEWESNGQPENNYKTTPPVLDSDGSFFLYSKLTVDKSRWQQGNVFSCSVMHEALHNHYTQKSLSLSPG | 807 | – | – | –
4 | PD-L1 303-PD-L1 303-CD58 3650-CD58 3650 (other) FTVTVPKDLYVVEYGSNMTIECKFPVEKQLDLAALIVYWEMEGKDIIQFVHGEEDQKAQHSSYRQRARLLKDQLSLGNAALQITDVKLQDAGVYRCMISYGGGADYKRITVKVNAGGGGSGGGGSGGGGSFTVTVPKDLYVVEYGSNMTIECKFPVEKQLDLAALIVYWEMEGKDIIQFVHGEEDQKAQHSSYRQRARLLKDQLSLGNAALQITDVKLQDAGVYRCMISYGGGADYKRITVKVNAGGGGSGGGGSGGGGSSQQIYGVVYGNVTFHVPSNVPLKEVLWKKQKDKVAELENSEFRAFSSFKNRVYLDTVSGSLTIYNLTSSDEDEYEMESPNITDTMKFFLYVLESGSGGSGGGGSGGGGSSQQIYGVVYGNVTFHVPSNVPLKEVLWKKQKDKVAELENSEFRAFSSFKNRVYLDTVSGSLTIYNLTSSDEDEYEMESPNITDTMKFFLYVLESGSGGGGSDYKDDDDKHHHHHH | – | – | 2 | 13.7
5 | CTLA-4 3037-PD-L1 303-Fc (SEQ ID NO 3666) (Fc fusion) KAMHVAQPAVVLASSRGIASFVCEYASPWKATEVRVTVLRQADSQVTEVCAATYMMGSELTFPDDSICTGTSSGNQVNLTIRGLRAMDTGLYICKVEQMYPPPYLLGIGNGTQIYVIDPEPCPDSDGSGGSGGGGSGGGGSFTVTVPKDLYVVEYGSNMTIECKFPVEKQLDLAALIVYWEMEGKDIIQFVHGEEDQKAQHSSYRQRARLLKDQLSLGNAALQITDVKLQDAGVYRCMISYGGGADYKRITVKVNAGGGGSGSGGGGSEPKSSDKTHTCPPCPAPEAEGAPSVFLFPPKPKDTLMISRTPEVTCVVVDVSHEDPEVKFNWYVDGVEVHNAKTKPREEQYNSTYRVVSVLTVLHQDWLNGKEYKCKVSNKALPAPIEKTISKAKGQPREPQVYTLPPSRDELTKNQVSLTCLVKGFYPSDIAVEWESNGQPENNYKTTPPVLDSDGSFFLYSKLTVDKSRWQQGNVFSCSVMHEALHNHYTQKSLSLSPG | 2050 | 2050 | – | –
6 | CTLA-4 3060-PD-L1 303-Fc (Fc fusion) KAMHVAQPAVVFASSHGIASFVCEYASPWKATEVRVTVLRQADSQVTEVCAATYMTGNELTFLDDSICTGTSSGNQVNLTIQGLRAMDTGLYICKVEQMYPPPYLLGIGNGTQIYVIDPEPCPDSDGSGGSGGGGSGGGGSFTVTVPKDLYVVEYGSNMTIECKFPVEKQLDLAALIVYWEMEGKDIIQFVHGEEDQKAQHSSYRQRARLLKDQLSLGNAALQITDVKLQDAGVYRCMISYGGGADYKRITVKVNAGGGGSGSGGGGSEPKSSDKTHTCPPCPAPEAEGAPSVFLFPPKPKDTLMISRTPEVTCVVVDVSHEDPEVKFNWYVDGVEVHNAKTKPREEQYNSTYRVVSVLTVLHQDWLNGKEYKCKVSNKALPAPIEKTISKAKGQPREPQVYTLPPSRDELTKNQVSLTCLVKGFYPSDIAVEWESNGQPENNYKTTPPVLDSDGSFFLYSKLTVDKSRWQQGNVFSCSVMHEALHNHYTQKSLSLSPG | 3790 | 3790 | – | –
7 | PD-L1 303-CD58 3650-Fc (Fc fusion) FTVTVPKDLYVVEYGSNMTIECKFPVEKQLDLAALIVYWEMEGKDIIQFVHGEEDQKAQHSSYRQRARLLKDQLSLGNAALQITDVKLQDAGVYRCMISYGGGADYKRITVKVNAGGGGSGGGGSGGGGSSQQIYGVVYGNVTFHVPSNVPLKEVLWKKQKDKVAELENSEFRAFSSFKNRVYLDTVSGSLTIYNLTSSDEDEYEMESPNITDTMKFFLYVLESGSGGGGSEPKSSDKTHTCPPCPAPEAEGAPSVFLFPPKPKDTLMISRTPEVTCVVVDVSHEDPEVKFNWYVDGVEVHNAKTKPREEQYNSTYRVVSVLTVLHQDWLNGKEYKCKVSNKALPAPIEKTISKAKGQPREPQVYTLPPSRDELTKNQVSLTCLVKGFYPSDIAVEWESNGQPENNYKTTPPVLDSDGSFFLYSKLTVDKSRWQQGNVFSCSVMHEALHNHYTQKSLSLSPG | – | – | 1.2 | 0.661
8 | CTLA-4 3037-Fc-PD-L1 303 (SEQ ID NO 3670) (Fc fusion) KAMHVAQPAVVLASSRGIASFVCEYASPWKATEVRVTVLRQADSQVTEVCAATYMMGSELTFPDDSICTGTSSGNQVNLTIRGLRAMDTGLYICKVEQMYPPPYLLGIGNGTQIYVIDPEPCPDSDGSGGGGSEPKSSDKTHTCPPCPAPEAEGAPSVFLFPPKPKDTLMISRTPEVTCVVVDVSHEDPEVKFNWYVDGVEVHNAKTKPREEQYNSTYRVVSVLTVLHQDWLNGKEYKCKVSNKALPAPIEKTISKAKGQPREPQVYTLPPSRDELTKNQVSLTCLVKGFYPSDIAVEWESNGQPENNYKTTPPVLDSDGSFFLYSKLTVDKSRWQQGNVFSCSVMHEALHNHYTQKSLSLSPGGGGGSGGGGSGGGGSFTVTVPKDLYVVEYGSNMTIECKFPVEKQLDLAALIVYWEMEGKDIIQFVHGEEDQKAQHSSYRQRARLLKDQLSLGNAALQITDVKLQDAGVYRCMISYGGGADYKRITVKVNA | 1570 | 1570 | – | –
9 | CTLA4 3037-Fc-PD-L1 303 (SEQ ID NO 3672) (Fc fusion) KAMHVAQPAVVLASSRGIASFVCEYASPWKATEVRVTVLRQADSQVTEVCAATYMMGSELTFPDDSICTGTSSGNQVNLTIRGLRAMDTGLYICKVEQMYPPPYLLGIGNGTQIYVIDPEPCPDSDGSGGGGSEPKSSDKTHTCPPCPAPEAEGAPSVFLFPPKPKDTLMISRTPEVTCVVVDVSHEDPEVKFNWYVDGVEVHNAKTKPREEQYNSTYRVVSVLTVLHQDWLNGKEYKCKVSNKALPAPIEKTISKAKGQPREPQVYTLPPSRDELTKNQVSLTCLVKGFYPSDIAVEWESNGQPENNYKTTPPVLDSDGSFFLYSKLTVDKSRWQQGNVFSCSVMHEALHNHYTQKSLSLSPGGGGGSGGGGSGGGGSAFTVTVPKDLYVVEYGSNMTIECKFPVEKQLDLAALIVYWEMEGKDIIQFVHGEEDQKAQHSSYRQRARLLKDQLSLGNAALQITDVKLQDAGVYRCMISYGGGADYKRITVKVNA | 2070 | 2070 | – | –
10 | CD58 3650-CD58 3650-PD-L1 303-PD-L1 303 (other) SQQIYGVVYGNVTFHVPSNVPLKEVLWKKQKDKVAELENSEFRAFSSFKNRVYLDTVSGSLTIYNLTSSDEDEYEMESPNITDTMKFFLYVLESGGGGSGGGGSGGGGSSQQIYGVVYGNVTFHVPSNVPLKEVLWKKQKDKVAELENSEFRAFSSFKNRVYLDTVSGSLTIYNLTSSDEDEYEMESPNITDTMKFFLYVLESGGGGSGGGGSGGGGSFTVTVPKDLYVVEYGSNMTIECKFPVEKQLDLAALIVYWEMEGKDIIQFVHGEEDQKAQHSSYRQRARLLKDQLSLGNAALQITDVKLQDAGVYRCMISYGGGADYKRITVKVNAGSGGSGGGGSGGGGSFTVTVPKDLYVVEYGSNMTIECKFPVEKQLDLAALIVYWEMEGKDIIQFVHGEEDQKAQHSSYRQRARLLKDQLSLGNAALQITDVKLQDAGVYRCMISYGGGADYKRITVKVNAGSGGGGSDYKDDDDKHHHHHH | – | – | 19.5 | 24.4
11 | CD58 3650-PD-L1 303-Fc (Fc fusion) SQQIYGVVYGNVTFHVPSNVPLKEVLWKKQKDKVAELENSEFRAFSSFKNRVYLDTVSGSLTIYNLTSSDEDEYEMESPNITDTMKFFLYVLESGGGGSGGGGSGGGGSFTVTVPKDLYVVEYGSNMTIECKFPVEKQLDLAALIVYWEMEGKDIIQFVHGEEDQKAQHSSYRQRARLLKDQLSLGNAALQITDVKLQDAGVYRCMISYGGGADYKRITVKVNAGSGGGGSEPKSSDKTHTCPPCPAPEAEGAPSVFLFPPKPKDTLMISRTPEVTCVVVDVSHEDPEVKFNWYVDGVEVHNAKTKPREEQYNSTYRVVSVLTVLHQDWLNGKEYKCKVSNKALPAPIEKTISKAKGQPREPQVYTLPPSRDELTKNQVSLTCLVKGFYPSDIAVEWESNGQPENNYKTTPPVLDSDGSFFLYSKLTVDKSRWQQGNVFSCSVMHEALHNHYTQKSLSLSPG | – | – | 4.6 | 2
